{
  "source": "the nanobody polyreactivity screen of Harvey et al. (2022)",
  "data": [
    {"experiment": "yeast display, Sf9 membrane polyspecificity reagent, FACS + sequencing; frameworks hold sequencing errors", "method_in_brief": "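In a synthetic yeast display library (Saccharomyces cerevisiae BJ5465), nanobody expression was induced with galactose for 36–48 hours. FACS gates were set low and high (top ~1%) using anti-HA fluorescence for expression and streptavidin fluorescence for binding of the Sf9 membrane reagent. Each polyreactivity label is drawn from the gate of origin.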", "values": [
      {"sequence": "QVQLEESGGGLDQAGGSLRLSCAASGNIFYGNAMGWYIQAAGKERALVARISGTGRTNYADSVKGRFTISRDNAKNTVYLQMNSLKPEDTAVYYCAKYGYRSRYGYDYWGQGTQVTVTS", "polyreactivity (PSR sort gate)": "high polyreactivity"},
      {"sequence": "QVQLEESGGGLVHAGGSLPLSCAASGGTFYKYAMGSYRQAPGKERELVARISRCGSTYYADSVNGRFTISRDNAKNTVYLQMNSLKPEDTAVYYCAKRWFAGWPIVVPYNYWGQGTQVTVSS", "polyreactivity (PSR sort gate)": "high polyreactivity"},
      {"sequence": "QVQLEESGGGLVHAGGSLRLSCAASGSTFGYYTMGWYRQAPRKERELVAAITWSGGSTYYADSVKGRFTISLDNAKNTVYLQMNSLKPEDSAVYYCAADDYWTPFGYWGQGTQVTVSS", "polyreactivity (PSR sort gate)": "low polyreactivity"},
      {"sequence": "QVQLEESGGGLVLAGGSLRLSCAASGSTFYNYAKGCYREAPGKERELVAAITFTGGSTYYADSVKGRFTISRDNAKNTVYLQMNSLKPEDTAVYYCNRLGPLGDQQQYDYWGQGTQVTVSS", "polyreactivity (PSR sort gate)": "low polyreactivity"},
      {"sequence": "QVQLEESGGGLVQAGDSLRLSCDASGSTFPGYAMGWYRPAPGKERELVAAIYKRGGSTRYADSVKGRFTISRDNAKNTVYLQMNSLKPEDTAVYYCAASYSYSGSGGGYWGQGTQVTVSS", "polyreactivity (PSR sort gate)": "high polyreactivity"},
      {"sequence": "QVQLEESGGGLVQAGFSLRLSCAASGRIFVPNAMGWSRPAPGKEGELVAAIRWTGGSTYYADSVQGRFTISRDNAKNTVYLQMNSLKPEDTAVSYCAARYAARRLTYFWPQYARYDYWGQGTQVTVSS", "polyreactivity (PSR sort gate)": "high polyreactivity"},
      {"sequence": "QVQLEESGGGLVQAGGILRLSCAASGSIFIPNAMGWYRQAPGKERELVAAIRSGGSTYYADSVKGRFTISRDNAKNTVYLQMNSLKPEDTAVYYCAADTYTYYYYLARYYYWGQGTQVTVSS", "polyreactivity (PSR sort gate)": "low polyreactivity"},
      {"sequence": "QVQLEESGGGLVQAGGNLRLSSAASGSIFSFNAMGCYRQAPGKERELVAAISWRGASTYYADSVKGRFTISRDNAKNTVYLQMNSLKPEDTAVYYCAAESTFILQYSYIYYDGHYDYCGQGTQVTVSS", "polyreactivity (PSR sort gate)": "low polyreactivity"},
      {"sequence": "QVQLEESGGGLVQAGGRLRLSCAASGGTFRNNAMGWDRQAPGKEREVVAAISSSGTSTYYADSVKGRFTISRDNAKNTVYLQMNSLKPEDTAVYYCNADALGYPWWDHMDYWGQGTQVTVSS", "polyreactivity (PSR sort gate)": "low polyreactivity"},
      {"sequence": "QVQLEESGGGLVQAGGRLRLSCAASGRTFGRYAMGWDREPPGKERELVAAIRSGGSTYYADSVKGRLTISRDNAKNTVYFQMNSVKQADTAVYYCAADIARHLTGFAYYGLDYWGQGTQVTVSS", "polyreactivity (PSR sort gate)": "low polyreactivity"},
      {"sequence": "QVQLEESGGGLVQAGGRLRLSCAASGSIFDLNAMGRYRQAPGKERELVAAISQRGTRTYYADSVKGRFTISRDNAKNNVYLQMNSLIPEDTAVYYCAVGNGLSRYVYGDYEYWGQGTQVTVSS", "polyreactivity (PSR sort gate)": "high polyreactivity"},
      {"sequence": "QVQLEESGGGLVQAGGRLRLSCAASVSIFGVYTMGWYRPAPGKERELVAAIRGVGSTNYADSVKGRFTISRDNAKNTVYLQMKSLKTEDTAVYYCAARYAYGMWGQGTHVTVSS", "polyreactivity (PSR sort gate)": "low polyreactivity"},
      {"sequence": "QVQLEESGGGLVQAGGSHRLSCAASGIIFSKYAMGWYRPAPGKEREFGAAISQRGGRTYYADSVKGRFTISRDNAKNTVYLQMNSLNTEDTAVYYCAATGTGGVYPLDYGGQGTQVTVSS", "polyreactivity (PSR sort gate)": "high polyreactivity"},
      {"sequence": "QVQLEESGGGLVQAGGSHRLSCAASGSIFGGNAMGWYRQAPGKERELVAAITQSGGRTYYADSVKGRCTISRDTAKNTVYLQMNSLKPEDTAVYYCNRVYKSQTTDSYPLSYYYWGQGTQVTVSS", "polyreactivity (PSR sort gate)": "high polyreactivity"},
      {"sequence": "QVQLEESGGGLVQAGGSLRIICADSGINFRYNAMGLYRKAPGKERELVAGIRKRGGSTYYADSVKGRFTISRDNANNTVYLQMNSLKPEDTEVYYCAALCPTTGRNYHSTPYEYWGQGTQVTVSS", "polyreactivity (PSR sort gate)": "high polyreactivity"},
      {"sequence": "QVQLEESGGGLVQAGGSLRISCAASGFTFKYYVMGWYRQAPGKERFVAAITGSGASTYYADSVKGRFTISRDNAKNTVYLQMNSLKPEDTAVYYCNAVYYAGRYRYDYWGQGTQVTVSS", "polyreactivity (PSR sort gate)": "high polyreactivity"},
      {"sequence": "QVQLEESGGGLVQAGGSLRISCAASVRTFKYYAMGWNRQAPGKETELVAAISWSGSSTSYADSVKGRFTISRDHAKNTVYLQMNSLKPEDTAVYYCAAATYRQFTGTYDYWGQGTQVTVSS", "polyreactivity (PSR sort gate)": "high polyreactivity"},
      {"sequence": "QVQLEESGGGLVQAGGSLRLICPASGRTFIRKAMGRYRQAPGKERELVASIRWSGGSTYYADSVKGRFTISRDNAKNTVYLQMNSLKTEDTAVYYCAASRWRPLERGTTWLHDYWGQGSQVTVSS", "polyreactivity (PSR sort gate)": "low polyreactivity"},
      {"sequence": "QVQLEESGGGLVQAGGSLRLSCAASARTIFGYAMGWYRQAPGKERELVAAINWGGASTYYADSVKGRFTISRDNAKNTVYLQMNSLKPEDTAVYYCAADSVPSRPTYGRYDYWGQGTQVTVSS", "polyreactivity (PSR sort gate)": "low polyreactivity"},
      {"sequence": "QVQLEESGGGLVQAGGSLRLSCAASGAIFYAYAMGCYRQATGKEREFVAAITRRGGNTYYADSVKGRFTISRDNAKNTVYVQMNSLKPEDTEVYYSAADAGGGTFDYWGHGTQVTVSS", "polyreactivity (PSR sort gate)": "low polyreactivity"},
      {"sequence": "QVQLEESGGGLVQAGGSLRLSCAASGFIFAQNAMGWYRQAPGKERELVARIRVSGTRTYYADSVKGRFTISRDNAKNTVYLQMNSLKQEDTAVYYCAAVPYTYDFGYKRFYWGQGTQVTVSS", "polyreactivity (PSR sort gate)": "high polyreactivity"},
      {"sequence": "QVQLEESGGGLVQAGGSLRLSCAASGFIFDYYMGWYIQAPGKERELVARISYTGGSTYYADCVKGRFTISRDNAKNTVYLQMNSLKPEDTAVYYCATRGAEAERFASYDFDYWGQGTQVTVSS", "polyreactivity (PSR sort gate)": "low polyreactivity"},
      {"sequence": "QVQLEESGGGLVQAGGSLRLSCAASGFIFSRNAMGWYRQAPGKERELVAAITGSGARTYYADSVKGRFTISRDNAKNTVYLQMNSLKPEDTAVYYCNADARGGIYFRGVKFDYWGLGTQVTVSS", "polyreactivity (PSR sort gate)": "high polyreactivity"},
      {"sequence": "QVQLEESGGGLVQAGGSLRLSCAASGFIFYRYAMGWYRQAPGKERELVAALTTGGDRTYYADSVKGRFTISRDNAKNTVYLQMNSLKPEDPAVYYCATLWSYYYATIYLDGYDYWGQGTQVTVSS", "polyreactivity (PSR sort gate)": "high polyreactivity"},
      {"sequence": "QVQLEESGGGLVQAGGSLRLSCAASGFISFAYAMGWYIQAPGKERELVAGISRSGDSTYYADSVKGRFTISRDNAKNTVYLQMNSLKPEDTAVYYCAARQVDWFDYTTAQVGSYKVNYWGQGTQVTVSS", "polyreactivity (PSR sort gate)": "low polyreactivity"},
      {"sequence": "QVQLEESGGGLVQAGGSLRLSCAASGFTFARNGMGWYRQAPVKESEFVAAITRSGGRTYYADSVKGRFTISRDNAKNTVYLQMNSLKPEDTAVYYCAAATSYGKSEYDYWGQGTQVTVSS", "polyreactivity (PSR sort gate)": "high polyreactivity"},
      {"sequence": "QVQLEESGGGLVQAGGSLRLSCAASGFTFDGYAMGWYRPAPGKERELVAAITSSGGSTYYADSVKGRFTISRDNTKNTVYLQMNSLKPEDTAVYYCNAVYYYGYYYYWTEFNYWGQGTQVTVSS", "polyreactivity (PSR sort gate)": "high polyreactivity"},
      {"sequence": "QVQLEESGGGLVQAGGSLRLSCAASGFTFRVYAMGWYRQAPGKERELVAAISSGGSTNYADSVKGRFTISRDNAKNTVYLQMNSLKPEDTAVYYCAARQRYYSERPQYSGLYYWGQGTQVTVSS", "polyreactivity (PSR sort gate)": "high polyreactivity"},
      {"sequence": "QVQLEESGGGLVQAGGSLRLSCAASGFTFTDYALGWYRQAPGTERELVAVITYDSTYYADPVKGRFTISRDNAKNTVYLQMNSLNPEDTAVYFCAADSYDWGDFDYWGQGTQVTVSS", "polyreactivity (PSR sort gate)": "low polyreactivity"},
      {"sequence": "QVQLEESGGGLVQAGGSLRLSCAASGFTFTYYAMGWYRQAPGKERELVASISYSGGSTYYADSVKGRFTISRDNAKNTVYLQMNSLKPEDTAVYYGAARTRHVHYGYWGQVTQVTVSS", "polyreactivity (PSR sort gate)": "high polyreactivity"},
      {"sequence": "QVQLEESGGGLVQAGGSLRLSCAASGFTFYRYAMGWYRQAPGKERELVAAITWSGGSTYYADSVKGRFTISRDNAKNTVYLQMNSLKPEDTGVYYCNAAAYYPTNYGGYLFEYWGQGTQVTVSS", "polyreactivity (PSR sort gate)": "low polyreactivity"},
      {"sequence": "QVQLEESGGGLVQAGGSLRLSCAASGFTLPLYAMGWYIQAPGKERELVAAISSGGGRTYYADSVKGRFTISPDYEKNSVYLQMNSLKPEDTAVYYCNVDRWWLGRYKFYYWGQGTQVTVSS", "polyreactivity (PSR sort gate)": "high polyreactivity"},
      {"sequence": "QVQLEESGGGLVQAGGSLRLSCAASGGTLRYYVMGSYRQAPGKERELVAAISWSGDSTYYADSVKGRFTISRDNAKNTVYLQMNSLKPEDTAVYYCAATYYLTYYYGQANHGYDYWGQGTQVTVSS", "polyreactivity (PSR sort gate)": "low polyreactivity"},
      {"sequence": "QVQLEESGGGLVQAGGSLRLSCAASGIFTRYAMGWYRQAPGKERELVAAISRGGGSTYYADTVKGRFTISRDNAKNTVYLLMNSLKPEDTAVYYCYTYKRPRSPGPKFYYWGQGTQVTVSS", "polyreactivity (PSR sort gate)": "high polyreactivity"},
      {"sequence": "QVQLEESGGGLVQAGGSLRLSCAASGIIFGTNAMGWYRQAPGKERELVATISWRGGSTYYADSVKGRFTISRDNAKNTVYLQMTSLKPEDTAVYYCAAGASGQRAYRRYYWGQGTQVTVSS", "polyreactivity (PSR sort gate)": "high polyreactivity"},
      {"sequence": "QVQLEESGGGLVQAGGSLRLSCAASGIIFSGNAMGWYRQAPGKERELVAANTRSGGTTYYADSVKGRFTISRDNAKNTVYLQMNSLKPEDTAVYYCAASYPLYVFYVSGYDYWGQGTQVTVSS", "polyreactivity (PSR sort gate)": "low polyreactivity"},
      {"sequence": "QVQLEESGGGLVQAGGSLRLSCAASGIIFSGYAMGWYRQAPGKERELVASIRSGSNTYYADSVKGRFTISRDNAKNTVYLQMISLKPEDTAVYYCAARVVPATFRFIRYPHPYYYWGQGTQVTVSS", "polyreactivity (PSR sort gate)": "low polyreactivity"},
      {"sequence": "QVQLEESGGGLVQAGGSLRLSCAASGIIFSIYAMGLYRKAPGKERELVAAITYSGGRTYYADSVKGRFTISRDNAKNTVYLQMNSLKPEDTAVYYCAAVVYGEYYWGQGTQVTVSS", "polyreactivity (PSR sort gate)": "high polyreactivity"},
      {"sequence": "QVQLEESGGGLVQAGGSLRLSCAASGIISTVYAMGWYRQAPGKERELVAAISCSGGSTYYADSLKGSFTISRDNENNTVYLQMNSLKPEDTAVYYCSKGYQYQGNSYGYWGQGTQVTVSS", "polyreactivity (PSR sort gate)": "low polyreactivity"},
      {"sequence": "QVQLEESGGGLVQAGGSLRLSCAASGINFQGNARGWYRQAPGKERELVASITAGGDTTYYADSVKGRFTISRDNAKNTFYLQLNSVKPEDSEVYDCAVYSWLDADDSYPDSILVDYWGQGTQVTVSS", "polyreactivity (PSR sort gate)": "low polyreactivity"},
      {"sequence": "QVQLEESGGGLVQAGGSLRLSCAASGITIYYYAMGWYRQAPGKERELVAAISRSAGSTSYADSVKGRFTISRDNAKNTVYLQMNSLKTEDNAVYYCAAQGWHLDSQWQLYNYYYWGQGTQVTVSS", "polyreactivity (PSR sort gate)": "high polyreactivity"},
      {"sequence": "QVQLEESGGGLVQAGGSLRLSCAASGLIFARNAMGWYRQAPGKERELVAAISKRGGSTFYADSVKGRFTISRDNAKNTVYLQMKSLNPEDTAVYYCNARSSETWHGDYWGQGTQVTVSS", "polyreactivity (PSR sort gate)": "high polyreactivity"}
    ]}
  ]
}
